In patent publication US20190177426A1 (BRIGHAM AND WOMEN S HOSPITAL, published 2019):

Key:
human fibulin-3 [1] = target: T1, human fibulin-3 (human, UniProt Q12805 18-493, limits assumed); experiment: SPR (BIACORE), antibody immobilized on the chip, purified human fibulin-3 pretreated with 10 mM DTT, duplicate, 1:1 model
T1 construct: Purified human fibulin-3 in Western blot, dot blot and BIACORE (there pretreated with 10 mM DTT to dissociate multimers); The same entry is used for fibulin-3 secreted by transfected CNS1 cells and for native fibulin-3 in human tissue sections; also called Fib3; EFEMP1 gene product
T1 sequence (looked up): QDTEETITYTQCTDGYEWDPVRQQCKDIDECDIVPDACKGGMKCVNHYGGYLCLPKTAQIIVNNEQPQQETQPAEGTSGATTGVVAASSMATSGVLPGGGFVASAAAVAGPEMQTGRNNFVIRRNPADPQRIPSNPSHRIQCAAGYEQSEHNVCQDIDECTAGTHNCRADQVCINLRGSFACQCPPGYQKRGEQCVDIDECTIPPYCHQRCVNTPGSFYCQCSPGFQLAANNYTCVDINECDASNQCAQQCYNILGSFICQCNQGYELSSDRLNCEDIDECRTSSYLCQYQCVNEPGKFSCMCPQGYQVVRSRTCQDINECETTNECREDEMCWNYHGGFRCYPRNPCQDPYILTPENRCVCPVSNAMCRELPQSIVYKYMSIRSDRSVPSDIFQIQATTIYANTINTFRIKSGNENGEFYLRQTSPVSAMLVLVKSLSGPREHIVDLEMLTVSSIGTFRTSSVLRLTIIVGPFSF
Protocol: (§1) Experiments were performed in duplicate and fit to a 1:1 binding interaction model.

human fibulin-3 [2] = target: T1, human fibulin-3; experiment: method not stated there (summary of the tests)
Protocol: as §1

human fibulin-3 [3] = target: T1, human fibulin-3; experiment: BIACORE, antibody immobilised on the chip, purified human fibulin-3 pretreated with 10 mM DTT as analyte (200-600 nM), 1:1 model; first of two runs (upper panel)
Protocol: as §1

human fibulin-3 [4] = target: T1, human fibulin-3; experiment: BIACORE, antibody immobilised on the chip, purified human fibulin-3 pretreated with 10 mM DTT as analyte (200-600 nM), 1:1 model; second of two runs (lower panel)
Protocol: as §1

B1: mAb428.2.3C11.H11.G3 (antibody, IgG1, V domains shown)
VH: QIQLVQSGPELKKPGETVKISCKASGYSFTTYGMSWVKQAPGKGLKWMGWINTYSGVPTYADDFKGRFAFFLETSASTAYLQINNLKNEDTATYFCARWVDYWGQGTTLTVSS
VL: DIKMTQSPSSMYASLGERVTITCKASQDIKSYLSWHQQKPWKSPKTLIYYATSLADGVPSRFSGSGSGQDYSLTISSLESDDTATYYCLQHGKSPYTFGGGTKLEIK
notes: also called mAb428.3C11; mAb428.3C11.H11.G3
Human fibulin-3 [1]
  Kd: ~4.5 nM
Human fibulin-3 [2]
  Kd: 5 nM
Human fibulin-3 [3]
  Kd: 6.97 nM
Human fibulin-3 [4]
  Kd: 2.03 nM
